# Measurements as given in patent US20190359687A1 (Bayer, published 2019).
# T1: purified human glycophorin A protein (Sigma, cat # G5017) (human, UniProt P02724 20-150)
# T1 construct: mature; also called Sigma hGPA; Sigma GPA
# T1 sequence (looked up): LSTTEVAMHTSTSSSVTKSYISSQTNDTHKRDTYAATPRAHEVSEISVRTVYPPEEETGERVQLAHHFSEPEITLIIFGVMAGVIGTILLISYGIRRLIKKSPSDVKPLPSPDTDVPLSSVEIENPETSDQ
# T2: human glycophorin A in the red blood cell membrane (human, UniProt P02724 20-150)
# T2 construct: whole, on cells; used for intact RBC, isolated RBC membranes and transfected cells; the assay field tells which; also called GPA; hGPA
# T2 sequence (looked up): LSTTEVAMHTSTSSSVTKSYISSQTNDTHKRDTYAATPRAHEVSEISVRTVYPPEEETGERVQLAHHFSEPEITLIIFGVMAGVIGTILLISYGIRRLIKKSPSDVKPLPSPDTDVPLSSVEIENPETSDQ
# T3: recombinant human GPA ectodomain (human, UniProt P02724 20-91)
# T3 construct: also called recombinant hGPA ECD; recGPA
# T3 sequence: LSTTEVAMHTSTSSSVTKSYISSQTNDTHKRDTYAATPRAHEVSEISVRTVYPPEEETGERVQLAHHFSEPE
# T4: human glycophorin A on human red blood cells or red blood cell membranes (human, UniProt P02724 20-150)
# T4 construct: whole, on cells; also called hRBC; human RBC membranes
# T4 sequence (looked up): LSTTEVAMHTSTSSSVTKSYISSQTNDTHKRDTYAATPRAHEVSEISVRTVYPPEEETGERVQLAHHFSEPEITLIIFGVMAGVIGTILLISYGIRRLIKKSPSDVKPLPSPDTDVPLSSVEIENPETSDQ
# Experiments:
# [1] = biological target: T1, purified human glycophorin A protein …; experiment: ELISA, hGPA
# [2] = biological target: T2, human glycophorin A in the red blood …; experiment: FACS, hu RBC
# dog red blood cells = biological target: T5, dog red blood cells (dog); experiment: FACS, dog RBC
# T5 construct: also called dog RBC
# [3] = biological target: T6, Cynomolgus monkey glycophorin A on Cynomolgus monkey red blood cells (Cynomolgus monkey); experiment: FACS, Cyno RBC
# T6 construct: whole, on cells; also called Cyno RBC; Cyno GPA
# Protocol: Hybridomas were generated from the spleen cells of these mice and these hybriomas were screened first by fluorescence activated cell sorting (FACS) against isolated human and monkey (Cynomolgus monkey and Rhesus monkey) red blood cells (RBC) and then by ELISA against purified human glycophorin A protein (GPA). Isolated RBC were prepared from whole blood from normal human, cynomolgus monkey, and beagle dog, were anticoagulant with sodium heparin (Bioreclamation). 2-3 mL of whole blood was loaded gently on the top of 3 mL Ficoll Plus (Sigma Aldrich) then centrifuged at 500 g for 20 min at room temperature (RT). The RBC pellets were washed 3 times with 10 mL of PBS, and centrifuge 400 g for 10 min at RT. RBC pellets were re-suspended in PBS at the same total volume as the original blood volume to achieve the same RBC cell density as in whole blood and stored at 4° C. Purified human glycophorin A protein was obtained from Sigma Aldrich and coated on ELISA plates at 2 ug/ml. Binding of antibodies to human GPA was detected using appropriate secondary antibodies using methods well known in the art.
# [4] = biological target: T1, purified human glycophorin A protein …; experiment: ELISA, purified IgG
# Protocol: The “Sigma GPA” is a crude preparation of human GPA extracted from human red blood cells and is therefore representative of the highly glycosylated form of the native protein.
# EC 50 values were determined from a dilution curve of the antibody. Sigma GPA is partially purified GPA extracted from human red blood cells and purchased from Sigma Chemical Company (cat # G5017), asialo hGPA is human GPA that was desialylated and ECD is the recombinantly expressed ectodomain which is the extracellular portion of GPA.
# [5] = biological target: T3, recombinant human GPA ectodomain; experiment: SPR, IgG; SPR, IgG form, recombinant human GPA ectodomain
# [6] = biological target: T1, purified human glycophorin A protein …; experiment: ELISA, native hGPA
# [7] = biological target: T2, human glycophorin A in the red blood …; experiment: ELISA, human RBC membranes;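 note: antibodies bound to isolated human red blood cell membrane ghosts coated on 96-well plates, tested 1.5 h at room temperature, bound antibody quantified with a detection antibody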
# Protocol: In order to evaluate binding of antibodies to GPA in the native context of the red blood cell membrane we made use of isolated red blood cell membranes, also called red blood cells ghosts. These membranes are prepared by first isolating red blood cells from citrated whole blood. Citrated whole blood is layered on to Ficol and centrifuged at low speed for 20 minutes to pellet the red blood cells. The supernatant containing plasma and other blood cells is discarded and the red blood cell pellet is subsequently washed 3 times in 10 cell volumes of phosphate buffered saline (PBS). A 10 ml pellet of purified red blood cells is resuspended in 30 ml of cold low osmorality 20 mM phosphate buffer (pH7.4) and incubated for 30 mins to break open the RBC. After Centrifugation at 10,000 rpm for 30 min at 5° C. the hemoglobin containing supernatant is discarded. To the membrane pellet another 30 ml of 20 mM phosphate buffer is added and the sample centrifuged again at 10,000 rpm for 30 min at 5° C. to pellet the membrane fraction. This wash and centrifugation step is repeated another 4 times. The red blood cell membranes are then resuspended in 20 mL of PBS to achieve an equivalent of approximately 2.5E9 cells/mL and stored frozen at −20° C. Binding of antibodies to RBC ghost can be measured by ELISA in which the RBC ghost suspension (5×10⁶ in 100 ul PBS) was added to each well of flat bottom 96-well ELISA microtiter plates (2HB, Immunolon) and the plates incubated overnight at 4° C. The plates were blocked with Starting blocking buffer (Thermo Fisher) for 2 hours at room temperature (RT). Antibodies or other test molecules were added to each well and incubated for 1.5 hours at RT. After 4 washes 100 ul of an appropriate detection antibody was added to each well and incubated for 1 hour at RT. After 4 washes the detection antibody was measured using appropriate detection reagents.
# [8] = biological target: T2, human glycophorin A in the red blood …; experiment: SPR single cycle kinetics, human RBC membranes on L1 sensor; single cycle kinetics, FIG. 6
# Protocol: (§1) Kinetic analysis of the antibody binding to human red blood cell membranes was also performed using surface plasmon resonance (SPR) using a Biacore instrument. In this assay membranes prepared from human red blood cells were attached to a L1 sensor matrix and antibodies were flowed over the RBC membranes.
# [9] = biological target: T4, human glycophorin A on human red blood …; experiment: SPR (Biacore), Fab on human RBC membranes;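 note: human RBC membranes captured on an L1 sensor chip, Fab fragments passed over as analyte, binding kinetics read by surface plasmon resonance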
# Protocol: as §1
# (§2) The binding kinetics of the affinity matured Fab antibodies was also measured.
# [10] = biological target: T7, Cynomolgus monkey glycophorin A on Cynomolgus monkey red blood cells or red blood cell membranes (Cynomolgus monkey); experiment: Fab 7 ug/ml on intact cyno RBC, unbound Fab by ELISA; pre-dilution
# T7 construct: whole, on cells; also called Cyno RBC; Cynomolgus monkey RBC membranes
# Protocol: (§3) The binding of affinity matured Fab antibodies to intact Cynomolgus monkey RBC was measured. Cynomolgus monkey RBC were isolated from fresh anti-coagulated blood by centrifugation through a ficol gradient and washing in PBS buffer. RBC diluted to 1/10th of normal hematocrit were incubated with the Fab at a final concentration of 7 ug/ml for 1 hour at room temperature on a rotating shaker after which a sample was taken and the RBC were pelleted by centrifugation and the supernatant was collected. The remaining RBC suspension was diluted 200-fold in PBS buffer and incubated for a total of 2 hours at room temperature on a rotating shaker and samples were removed at 0, 5 min, 20 min, 1 h and 2 h and the RBC pelleted and the supernatant collected. […] The amount of Fab in the supernatants was then measured using an ELISA assay and the results used to calculate the percentage of the input Fab that was bound to the RBC.
# [11] = biological target: T4, human glycophorin A on human red blood …; experiment: Fab 7 ug/ml on intact human RBC, unbound Fab by ELISA; pre-dilution
# Protocol: The binding of affinity matured Fab antibodies to intact human RBC was also measured. Human RBC were isolated from fresh anti-coagulated normal human blood by centrifugation through a ficol gradient and washing in PBS buffer. RBC diluted to 1/10th of normal hematocrit were incubated with purified Fab antibodies at a final concentration of 7 ug/ml for 1 hour at room temperature on a rotating shaker after which a sample was taken and the RBC were pelleted by centrifugation and the supernatant was collected. The remaining RBC suspension was diluted 200-fold in PBS buffer and incubated for a total of 2 hours at room temperature on a rotating shaker and samples were removed at 0, 5 min, 20 min, 1 h and 2 h and the RBC pelleted and the supernatant collected. The amount of Fab in the supernatants was then measured using an ELISA assay and the results used to calculate the percentage of the input Fab that was bound to the RBC. […] The percentage that remains bound after 200-fold dilution of the RBC suspension is an indication of the overall strength of the binding to human RBC.
# [12] = biological target: T4, human glycophorin A on human red blood …; experiment: SPR (Biacore), Fab on human RBC membranes; T½ = 0.69/kd; * not accurate;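 for kon: human RBC membranes captured on an L1 sensor chip, Fab fragments passed over as analyte, binding kinetics read by surface plasmon resonance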
# Protocol: as §1, §2
# [13] = biological target: T4, human glycophorin A on human red blood …; experiment: SPR (Biacore), Fab on human RBC membranes; * not accurate, instrument limit;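 for kon: human RBC membranes captured on an L1 sensor chip, Fab fragments passed over as analyte, binding kinetics read by surface plasmon resonance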
# Protocol: as §1, §2
# [14] = biological target: T7, Cynomolgus monkey glycophorin A on …; experiment: Fab on intact cyno RBC, unbound Fab by ELISA; 0 min after 200-fold dilution
# [15] = biological target: T7, Cynomolgus monkey glycophorin A on …; experiment: Fab on intact cyno RBC, unbound Fab by ELISA; 5 min after 200-fold dilution
# Protocol: as §3
# [16] = biological target: T4, human glycophorin A on human red blood …; experiment: Fab on intact human RBC, unbound Fab by ELISA; 0 min after 200-fold dilution
# [17] = biological target: T4, human glycophorin A on human red blood …; experiment: Fab on intact human RBC, unbound Fab by ELISA; 5 min after 200-fold dilution
# [18] = biological target: T7, Cynomolgus monkey glycophorin A on …; experiment: Fab on intact cyno RBC, unbound Fab by ELISA; 20 min after 200-fold dilution
# [19] = biological target: T7, Cynomolgus monkey glycophorin A on …; experiment: Fab on intact cyno RBC, unbound Fab by ELISA; 60 min after 200-fold dilution
# [20] = biological target: T4, human glycophorin A on human red blood …; experiment: Fab on intact human RBC, unbound Fab by ELISA; 20 min after 200-fold dilution
# [21] = biological target: T4, human glycophorin A on human red blood …; experiment: Fab on intact human RBC, unbound Fab by ELISA; 60 min after 200-fold dilution
# [22] = biological target: T7, Cynomolgus monkey glycophorin A on …; experiment: Fab on intact cyno RBC, unbound Fab by ELISA; 120 min after 200-fold dilution
# [23] = biological target: T4, human glycophorin A on human red blood …; experiment: Fab on intact human RBC, unbound Fab by ELISA; 120 min after 200-fold dilution
# [24] = biological target: T3, recombinant human GPA ectodomain; experiment: ELISA, rec hGPA ectodomain
binder,measurement,setting,value
"7G4E9/A8 (antibody, V domains shown, as m8) VH: QVQLKESGPGLVAPSQSLSITCTVSGFSLTRFGISWVRQPPGKGLEWMGVIWGDGSTDYHSALISRLSITKDNSKSQVFFRLNSLQSDDSATYYCARSFGMDYWGQGTSVTVSS VL: NIMMTQSPSSLAVSAGEKVTMSCKSSQSILNSSNQKNYLAWYQQKPGQSPKLLIYWASTRESGVPDRFTGSGSGTDFTLTISSVQAEDLAVYYCHQYFSSRTFGGGTKLEIK",EC50,[1],0.071 nM
same,FACS signal,[2],2830 relative flourescence units
same,FACS signal,dog red blood cells,0.98 relative flourescence units
same,FACS signal,[3],8 relative flourescence units
same,EC50,[4],0.33 nM
same,Kd,[5],5.92 nM
same,koff,[5],0.00046 s⁻¹
same,kon,[5],77700 M⁻¹ s⁻¹
same,t½,[5],25.1 min
"TPP-4935 (Fab, V domains shown, also called Parental; hu6C12-24 parental Fab) VH: EVQLVQSGAEVKKPGASVKVSCKASGYTFTTYTIHWVRQAPGQGLEWIGYINPSSDYTRYNPKFKDRVTLTTDKSTSTAYMELRSLRSDDTAVYYCQTGTRDYWGQGTTVTVSS VL: DIQLTQSPSFLSASVGDRVTITCSAASSVSYIYWFQQKPGKAPKLLIYSTSTLPSGVPSRFSGSGSGTEYTLTISSLQPEDFATYYCHQRNSFPFTFGQGTKLEIKR",binding by ELISA relative to parental,[6],1
same,binding by ELISA relative to parental,[7],0.99
same,Kd,[8],130 nM
"TPP-7783, affinity matured 6C12 Fab (Fab, V domains shown, Tested as Fab) VH: EVQLVQSGAEVKKPGASVKVSCKASGYTFTTYAIHWVRQAPGQGLEWMGYINPSSGYTRYNPKFKHRVTMTRDKSTSTAYMELRSLRSDDTAVYYCWTGTRDYWGQGTTVTVSS VL: DIQLTQSPSFLSASVGDRVTITCRASSSVRYIYWFQQKPGKAPKLLIYATSFRRSGVPSRFSGSGSGTEYTLTISSLQPEDFATYYCHQRNSFPYTFGQGTKLEIK",kon,[9],267000 M⁻¹ s⁻¹
same,percentage of input antibody bound,[10],72%
same,percentage of input antibody bound,[11],90%
same,Estimated T½,[12],33 days
same,Kd,[13],0.904 pM
same,koff,[13],2.42e-07 s⁻¹
same,percentage of input antibody bound,[14],60%
same,percentage of input antibody bound,[15],62%
same,percentage of input antibody bound,[16],87%
same,percentage of input antibody bound,[17],86%
same,percentage of input antibody bound,[18],62%
same,percentage of input antibody bound,[19],64%
same,percentage of input antibody bound,[20],86%
same,percentage of input antibody bound,[21],84%
same,percentage of input antibody bound,[22],56%
same,percentage of input antibody bound,[23],85%
"TPP-5341 (Fab, V domains shown, also called VL: (A26S)) VH: EVQLVQSGAEVKKPGASVKVSCKASGYTFTTYTIHWVRQAPGQGLEWIGYINPSSDYTRYNPKFKDRVTLTTDKSTSTAYMELRSLRSDDTAVYYCQTGTRDYWGQGTTVTVSS VL: DIQLTQSPSFLSASVGDRVTITCSASSSVSYIYWFQQKPGKAPKLLIYSTSTLPSGVPSRFSGSGSGTEYTLTISSLQPEDFATYYCHQRNSFPFTFGQGTKLEIKR",binding by ELISA relative to parental,[6],1.03
same,binding by ELISA relative to parental,[7],0.82
same,binding by ELISA relative to parental,[24],1.19
same,Kd,[8],34 nM
"TPP-5340 (Fab, V domains shown, also called VL: (S24R)) VH: EVQLVQSGAEVKKPGASVKVSCKASGYTFTTYTIHWVRQAPGQGLEWIGYINPSSDYTRYNPKFKDRVTLTTDKSTSTAYMELRSLRSDDTAVYYCQTGTRDYWGQGTTVTVSS VL: DIQLTQSPSFLSASVGDRVTITCRAASSVSYIYWFQQKPGKAPKLLIYSTSTLPSGVPSRFSGSGSGTEYTLTISSLQPEDFATYYCHQRNSFPFTFGQGTKLEIKR",binding by ELISA relative to parental,[6],1.17
same,binding by ELISA relative to parental,[7],0.9
same,binding by ELISA relative to parental,[24],1.23
same,Kd,[8],25 nM
